Measured values reported in patent US20200270365A1 (JIANGSU HENGRUI MEDICINE, published 2020).
Where two headings read alike, the source gives them in different places. Values belong to the binder of their own block, whether it stands above or below them.

Columns and labels:
[1] = molecular target: T1, PCSK9 with His-tag: PCSK9-His6 (human, UniProt Q8NBP7 153-692; A8T644 31-152); assay: SPR Biacore, antibody captured by human Fab capture molecule on CM5, PCSK9-His6 mobile phase
T1 construct: also called huPCSK9; human PCSK9 antigen
Excerpt: According to the method described in the human Fab capture kit (Cat. #28-9583-25, GE), the human Fab capture molecule was covalently linked to the CM5 biochip (Cat. #BR-1000-12, GE) so that the PCSK9 antibodies of the present invention were affinity captured. Then, human PCSK9 antigen (PCSK9 with His tag: PCSK9-His6, SEQ ID NO: 1) flowed through the surface of the biochip, and the reaction signal was detected in real time using a Biacore instrument to obtain the association and dissociation curves. Finally, the affinity values were obtained by fitting and are shown at table 16 below. After each cycle of dissociation was finished, the biochip was washed and regenerated with regeneration solution in the human Fab capture kit (GE).

[2] = molecular target: T2, PCSK9 D374Y mutant protein inserted with biotin receiving peptide BP15 and His-tag: PCSK9-D374Y-BP15-His6 (human, UniProt Q8NBP7 153-692; A8T644 31-152, biotin on the BP15 biotin receiving peptide); assay: ELISA, biotin PCSK9-Y on streptavidin plate
T2 construct: also called PCSK9-Y; mutant PCSK9
Protocol: The binding ability of anti-PCSK9 antibodies of the present invention to PCSK9-Y protein (mutant PCSK9, SEQ ID NO: 6) was detected by measuring the amounts of antibodies binding to PCSK9-Y immobilized on the ELISA plate.
Streptavidin (sigma, CAT #S4762) was diluted to 2 μg/ml with PBS and was added into a 96-well ELISA plate, at 4° C. for overnight. The plate was washed and then was blocked with Tris buffer (including 0.9 mM CaCl₂, 0.05% Tween 20 and 5% skim milk) at 37° C. for 2 hours. The plate was washed and 100 μl/well of biotin-labeled PCSK9-Y (produced in-house, diluted with Tris buffer containing 0.9 mM CaCl₂, 0.05% Tween 20 and 1% skim milk) was added and incubated at 37° C. for 1 hour. After the wash step, various concentrations of diluted PCSK9 antibody samples were added to the plate and incubated at 37° C. for 1 hour. […] Then the plate was washed and tetramethyl brenzidine solution was added for development. Finally, the stop buffer was added and the OD450 value was measured on the Microplate reader, and then EC50 was calculated.

[3] = molecular target: T3, PCSK9 protein inserted with biotin receiving peptide BP15 and His-tag: PCSK9-BP15-His6 (human, UniProt Q8NBP7 153-692; A8T644 31-152, biotin on the BP15 biotin receiving peptide (labeled during the expression)); assay: competition ELISA, LDLR-FC coated, biotin PCSK9 + antibody
T3 construct: also called WT PCSK9; PCSK9 WT
Protocol: The blocking ability of PCSK9 antibodies according to the present invention for the binding of LDLR-FC (produced in-house, with sequence of SEQ ID NO: 8) and PCSK9 (SEQ ID NO: 5) was tested by measuring the amount of PCSK9 binding to LDLR in the presence of the antibodies.
(§1) LDLR-FC was diluted to 5 μg/ml with phosphate buffer and was added into the 96-well ELISA plate, kept at 4° C. overnight. The plate was washed and then blocked with Tris buffer (including 0.9 mM CaCl₂, 0.05% Tween 20 and 5% skim milk) at 37° C. for 2 hours. Then the plate was washed and 100 μl/well of mixture of biotin-labeled PCSK9 (diluted to 2 μg/ml with Tris buffer containing 0.9 mM CaCl₂, 0.05% Tween 20 and 1% skim milk) and antibody samples (diluted with Tris buffer containing 0.9 mM CaCl₂, 0.05% Tween 20 and 1% skim milk) was added and incubated at 37° C. for 1 hour. Then the plate was washed again and horseradish peroxidase-streptavidin (sigma, CAT #S2438) was added and incubated at 37° C. for 1 hour. Then the plate was washed and tetramethyl brenzidine solution was added for development. Finally, the stop buffer was added and OD450 value was measured on the Microplate reader, then IC50 value was calculated.

[4] = molecular target: T4, PCSK9-D374Y mutant protein with His-tag: PCSK9-D374Y-His6 (human, UniProt Q8NBP7 153-692; A8T644 31-152); assay: SPR Biacore X100, antibody captured by anti-Fc pAb on CM5, PCSK9-Y mobile phase
T4 construct: also called PCSK9-Y; PCSK9-Y antigen
Protocol: (§2) Different back mutations were selected for combination (Table 3) after CDR grafting. The designed humanized sequences were fully-gene synthesized and heavy and light chains were combined with each other for mammalian expression (Table 4). After purification of the protein, the blocking activity test was performed similarly to that for chimeric antibodies (see test 3 and 4 for the method and the results are shown in Table 5). Some cloned proteins were selected and were determined for dissociation constants by Surface Plasmon resonance (SPR) (Biacore X100, GE, see test 5). The sample to be tested was captured by the Amine-Coupling Anti-Fc pAb (GE) on the CM5 chip (GE). PCSK9 (SEQ ID NO: 1) or PCSK9-Y (SEQ ID NO: 4) was the mobile phase, working buffer was 1×HBS-EP⁺, pH 7.4, regeneration bu0ffer was 3 M MgCl₂.

[5] = molecular target: T3, PCSK9 protein inserted with biotin …; assay: ELISA, biotin PCSK9 on streptavidin plate
Protocol: The binding ability of anti-PCSK9 antibodies of the present invention to PCSK9 protein (WT PCSK9, SEQ ID NO: 5) was detected by measuring the amounts of antibodies binding to PCSK9 immobilized on the ELISA plate.
Streptavidin (sigma, CAT #S4762) was diluted to 2 μg/ml with PBS and was added into a 96-well ELISA plate, at 4° C. for overnight. The plate was washed and then was blocked with Tris buffer (including 0.9 mM CaCl₂, 0.05% Tween 20 and 5% skim milk) at 37° C. for 2 hours. Then the plate was washed again and 100 μl/well of biotin-labeled PCSK9 (produced in-house, diluted with Tris buffer containing 0.9 mM CaCl₂, 0.05% Tween 20 and 1% skim milk) was added and incubated at 37° C. for 1 hour. After the wash step various concentrations of diluted PCSK9 antibody samples was added to the plate and incubated at 37° C. for 1 hour. […] Then the plate was washed and tetramethyl brenzidine solution was added for development. Finally, the stop buffer was added and the OD450 value was measured on the Microplate reader, and then EC50 was calculated.

[6] = molecular target: T2, PCSK9 D374Y mutant protein inserted …; assay: competition ELISA, LDLR-FC coated, biotin PCSK9-Y + antibody
Protocol: The blocking ability of PCSK9 antibodies according to the present invention for the binding of LDLR-FC and PCSK9-Y (mutant PCSK9, SEQ ID NO: 6) was tested by measuring the amount of PCSK9-Y binding to LDLR in the presence of the antibodies.
as §1, with “LDLR-FC (produced in-house, with sequence of SEQ ID NO: 8)” for “LDLR-FC”, “to 2” for “to 5”, “plate,” for “plate, kept”, “biotin-labeled mutant” for “biotin-labeled”, “to 1” for “to 2”

[7] = molecular target: T2, PCSK9 D374Y mutant protein inserted …; assay: as above; remark: listed apart in the source
Protocol: as §2
(§3) LDLR-FC (produced in-house, with sequence of SEQ ID NO: 8) was diluted to 2 μg/ml with phosphate buffer and was added into the 96-well ELISA plate, at 4° C. overnight. The plate was washed and then blocked with Tris buffer (including 0.9 mM CaCl₂, 0.05% Tween 20 and 5% skim milk) at 37° C. for 2 hours. […] Finally, the stop buffer was added and OD450 value was measured on the Microplate reader, then IC50 value was calculated.

[8] = molecular target: T1, PCSK9 with His-tag: PCSK9-His6; assay: SPR Biacore X100, antibody captured by anti-Fc pAb on CM5, PCSK9 mobile phase
Protocol: as §2

[9] = molecular target: T3, PCSK9 protein inserted with biotin …; assay: competition ELISA, LDLR-FC coated, biotin PCSK9 + antibody; remark: listed apart in the source
Protocol: as §2
as §3, with “LDLR-FC” for “LDLR-FC (produced in-house, with sequence of SEQ ID NO: 8)”, “to 5” for “to 2”, “plate, kept” for “plate,”

- Kd [1]: < 0.0526 nM
B1: h011-3133-WT: h011-3133-IgG1 format (antibody)
heavy: not shown
light: DIVMTQSPSSLSASVGDRVTITCKASQNVYTAVAWYQQKPGKSPKLLIYSASNRYTGVPSRFSGSGSGTDFTLTISSLQPEDFATYFCQQYSSYPYTFGGGTKVEIKRTVAAPSVFIFPPSDEQLKSGTASVVCLLNNFYPREAKVQWKVDNALQSGNSQESVTEQDSKDSTYSLSSTLTLSKADYEKHKVYACEVTHQGLSSPVTKSFNRGEC
notes: Human IgG1 heavy chain constant region, human kappa light chain

- Kd [1]: < 0.0518 nM
B2: h011-3133-YTE: h011-3133-IgG1-YTE format (antibody)
heavy: QVQLVQSGAEVKKPGASVKVSCKASGYTFTGYEIHWVRQAPGQGLEWMGYINPSATYTKFNQKFKDRVTMTRDTSISTAYMELSRLRSDDTAVYYCARERIYSNYWFFDVWGQGTTVTVSSASTKGPSVFPLAPSSKSTSGGTAALGCLVKDYFPEPVTVSWNSGALTSGVHTFPAVLQSSGLYSLSSVVTVPSSSLGTQTYICNVNHKPSNTKVDKKVEPKSCDKTHTCPPCPAPELLGGPSVFLFPPKPKDTLYITREPEVTCVVVDVSHEDPEVKFNWYVDGVEVHNAKTKPREEQYNSTYRVVSVLTVLHQDWLNGKEYKCKVSNKALPAPIEKTISKAKGQPREPQVYTLPPSRDELTKNQVSLTCLVKGFYPSDIAVEWESNGQPENNYKTTPPVLDSDGSFFLYSKLTVDKSRWQQGNVFSCSVMHEALHNHYTQKSLSLSPGK
light: B1 light
notes: Mutant human IgG1 (YTE: M252Y, S254T, T256E, EU numbering), human kappa light chain

- EC50 [2]: 1.78 µg/mL
- IC50 [3]: 0.681 µg/mL
- Kd [4]: 34.5 nM
- koff [4]: 0.00578 s⁻¹
- kon [4]: 168000 M⁻¹ s⁻¹
- EC50 [5]: 0.00719 µg/mL
- IC50 [6]: 5.49 µg/mL
- IC50 [7]: 5.13 µg/mL
- Kd [8]: 0.263 nM
- koff [8]: 1.88e-05 s⁻¹
- kon [8]: 71300 M⁻¹ s⁻¹
- IC50 [9]: 0.205 µg/mL
B3: humanized antibody h011-3 (antibody, V domains shown)
VH: QVQLVQSGAEVKKPGASVKVSCKASGYTFTGYTIHWVRQAPGQGLEWMGYINPSSTYTKFNQKFKDRVTMTRDTSISTAYMELSRLRSDDTAVYYCARERIYSNYWFFDVWGQGTTVTVSS
VL: DIVMTQSPSSLSASVGDRVTITCKASQNVYTAVAWYQQKPGKSPKLLIYSASNRYTGVPSRFSGSGSGTDFTLTISSLQPEDFATYFCQQYSSYPYTFGGGTKVEIK
notes: h011_VH.1 with h011_VL.1B
